This is an account of results in patent US20260258115A1 (MAPP BIOPHARMACEUTICAL, published 2026).

What all share (test): BLI, IgG
On the technique in general: BLI is a label-free optical method that tracks binding on a fibre tip over time.

The target of test [1] is RSV prefusion F (preF), subtype A (respiratory syncytial virus, subtype A, UniProt P03420 26-513).
For test [2], the target named is T1, RSV postfusion F (postF), subtype A (respiratory syncytial virus, subtype A, UniProt P03420 26-513).
T1 construct: also called F ΔFP; Postfusion subtype A

Test [3] has as its target RSV prefusion F (preF), subtype B (respiratory syncytial virus, subtype B).
Test [4] has as its target T2, RSV postfusion F (postF), subtype B (respiratory syncytial virus, subtype B).
T2 construct: also called F ΔFP; Postfusion subtype B

In general, Kd refers to a measure of binding affinity in units of concentration. High values mean a looser complex, low ones a tighter complex.

B1: ADI-21007 (antibody, V domains shown)
VH: QVQLVQSGADVKKPGASVKVSCKSSGYTFSNHSMHWVRQAPGQGLEWMGRIHPSSGTTTYAQKFQGRVTMTRDTSTSTVYMEVSSLRSEDTAVYYCARSPFFDFDFWGQGTMVTVSS
VL: SYVLTQPHSVSESPGKTVTISCTRSSGSIASNYVQWYQQRPGSAPTSVIYEDNQRPSGVPDRFSGSIDSTSNSASLTISGLKTEDEADYYCQSYYSSGWVFGGGTKLTVL
Turning to B1, the Kd came to 1480 pM in test [1], 171 pM in test [2], 1720 pM in test [3] and 171 pM in test [4].

B2: ADI-21047 (antibody, V domains shown)
VH: QVQLQQWGAGLLKPSETLSLTCAVYGGSFSGKYWSWIRQPPGKGLEWIGEFNHDGTTYYNPSLKSRVTISADTPKNQFSLTLHSVTAADTAVYYCARLTILSDWGQGTLVTVSS
VL: DIRMTQSPSSLSASVGDRVTITCQASQDISNYLHWYQQKPGKAPKLLIYDASNLETGVPSRFSGSGSGTDFTFTIHSLQPEDLATYYCQQYYDLPRTFGQGTKLEIK
B2: the Kd came to 2110 pM in test [1], 290 pM in test [2], 756 pM in test [3] and 262 pM in test [4].

B3: ADI-21037 (antibody, V domains shown)
VH: QVQLVQSGGGVVQPGRSLRLSCAASGFPFSSYAMHWVRQAPGKGLEWVAVIWYPGGEKYSADSVTGRFTISRDNSKNTLYLQMSSLRVEDTAVYYCARRSVGAFDYWGQGTLVTVSS
VL: DIQMTQSPLSLPVTPGEPASISCRSSQSLLNSNGYNYLDWYLQKPGQSPQVLIYLGSHRASGVPDRFSGSGSGTDFTLRISRVEAEDVGVYYCMQAVQTPYTFGQGTKVEIK
As to B3, the Kd in test [1] is 1950 pM; in test [2], 248 pM; in test [3] it was 4810 pM; in test [4], 3170 pM.

B4: ADI-21042 (antibody, V domains shown)
VH: EVQLVESGPRLVKPSQTLSLTCNVSGVPVNTGGYYWSWIRRHPIKGLEWIGYIYYSGSTHYNPSLRGRATMSVDTSKNQFSLRLSSVTAADTAVYYCAKDTITVLRGVAKKGVFDPWGQGILVTVSS
VL: DIQMTQSPSTLSASVGDRVIITCRASQSISSWLAWYQYKPGKAPNLLIYKATTLDSGVPSRFSGSGSGTEFTLTISSLQPDDFATYYCQQYDSYPTFGQGTKVEIK
notes: also called Ab 290
As for B4, the dissociation constant (Kd) in test [1] was determined as 2960 pM; in test [2], 287 pM; in test [3], 1180 pM; in test [4], 398 pM.

B5: ADI-21011 (antibody, V domains shown)
VH: QVQLQESGPGLVKPSETLSLSCTASGDSISDYYWSWIRQPPGKGLEWIGFVSDTWGTNYSPSLTSRVAISLDTSRSQVSLRLRSVTAADTAVYYCVRTHLYDRGGYYLYYFDYWGQGTLVTVSS
VL: DIRMTQSPPSLSASVGDRVTITCRASQRIASYLNWYQQKPDTAPKLLIYAASNLQTGVPSRFSGSGSGTDFTLTISSLQPEDFATYYCQQSYSTPYTFGQGTKLEIK
For B5, the Kd in test [1] turned out to be 1410 pM; in test [2], 162 pM; in test [3], 982 pM; in test [4], 356 pM.

B6: ADI-21012 (antibody, V domains shown)
VH: QVQLVQSGPAVVKPTQTLTLTCSFSGFSLSTSRMSVSWIRQPPGKALEWLARIDWDGDKYYSTSLKSRLTISKDTSKNQVVLTMTNMDPVDTATYYCARGSYYVSSGYYLNYFDYWGQGTLVTVSS
VL: DIRMTQSPSSLSASVGDRVTITCRTSQTIASYLNWYQQKPGKAPNLLIYAASILQTGVPSRFSGSGSGTDFTLTISSLQPEDFATYYCQQSYGTPQTFGQGTKVEIK
Consider B6, for which the Kd in test [1] turned out to be 371 pM; in test [2] it was 214 pM; in test [3], 1920 pM; in test [4], 280 pM.

B7: ADI-21019 (antibody, V domains shown)
VH: EVQLLESGGGLVRPGGSLRLSCAVSGFTFSGNALTWIRRAPGKGLEWVSTIGDSGGGSYYADSVKGRFTISRDNSKSTLYLQMNSLTAEDTAVYYCARDPYGDYRDYYGIDVWGQGTTVTVSS
VL: EIVMTQSPLSLPVTPGEPASISCRSSQSLRHSNGYNYVDWYLQKPGQSPQLLIYLGSNRASGVPDRFRGSGSGTDFTLKISRVEAEDVGVYYCMQALQTPLTFGQGTKVEIK
As to B7, the dissociation constant Kd in test [1] stood at 182 pM; in test [2] it was 154 pM; in test [3] it was 962 pM; in test [4] it was 168 pM.

B8: ADI-21043 (antibody, V domains shown)
VH: QVQLVQSGAEVKKPGASVKVSCKASGYTFTSYGITWVRQAPGQGLEWMGWISTYNGKTNYAQKFKGRVTMTTDTSTSTAYVELTSLRSDDTAVYYCAREFPTRIVDSFYMDVWGKGTTVTVSS
VL: SYELTQPPSVSVAPGQTARITCGGSNIGSETVHWYQQKPGQAPVLVVYGDSDRPSGIPERFSGSNSGNTATLTISRVEAGDEADYYCQVWDSRSDDFHVFGSGTKLTVL
On to B8, for which the Kd in test [1] is 111 pM; in test [2], 1650 pM; in test [3] it was 154 pM; in test [4], 1930 pM.

B9: ADI-21026 (antibody, V domains shown)
VH: QVQLVQSGPGLVKPSQTLSLTCTVSGVSISSGGFYWSWIRQHPGKGLEWIGHIYYSRSTYYNPSLKSRVTMSLNMSKNQFSLRLSSVTAADTAVYYCARERREWLHGELDYWGQGTTVTVSS
VL: DIQMTQSPDSLAVSLGEGATINCKSSQSVLDSSKNKNYLAWYQQRPGQPPKLLISWASTRESGVPDRFSGSGSGTDFTLTISSLQAEDVAVYSCQQYFSPPATFGQGTKLEIK
Turning to B9, the Kd was determined as 6350 pM in test [1], 945 pM in test [2], 3990 pM in test [3] and 1430 pM in test [4].

B10: ADI-21004 (antibody, V domains shown)
VH: QVQLQESGGGVVQPGRSLTLSCAASGFTFSSYGMHWVRQAPGKGLDWVAEIWYDGSNKYYVDSVKGRFTISRDNSKNTLYLQMKSLRAEDTAIYYCARDGGYESPFFDKWGQGTLVTVSS
VL: EIVMTQSPDSLGVSLGERATINCKSSQSLYTSNHENSLAWYQQKPGQPPRLLIYWASTRELGVPDRFSGSGSGTDFTLTISSLQAEDVAVYYCQQYHTTPLTFGPGTKVEIK
In the case of B10, the equilibrium dissociation constant (Kd) in test [1] amounted to 4590 pM; in test [2], 540 pM; in test [3], 10200 pM; in test [4], 798 pM.

B11: ADI-21055 (antibody, V domains shown)
VH: EVQLVESGGGVVQPGRSLRLSCVGSGFTFSRYGMQWVRQAPGKGLEWAAVIWNDGSNEHYADSVKGRFTISRDNSKNTMYLQMNSLRAEDTALYYCAREGEYSSSWSHWSYLDLWGRGTLVTVSS
VL: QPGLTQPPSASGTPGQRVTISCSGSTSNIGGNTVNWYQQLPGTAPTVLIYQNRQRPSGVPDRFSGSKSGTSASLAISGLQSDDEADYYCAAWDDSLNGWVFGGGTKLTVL
On to B11, for which the equilibrium dissociation constant (Kd) was 1100 pM in test [1], 185 pM in test [2], 2980 pM in test [3] and 4350 pM in test [4].

B12: ADI-21054 (antibody, V domains shown)
VH: QVQLVESGGGVVQPGRSLRLSCAASGFSFSNYGMHWVRQAPGKGLEWVVGISFDGSYIFHGGSVTGRFNISRDNSKNTLYLQVNSVRAEDTAVYYCARDPQYYDDWSGYSGLLHYYLYMDVWGKGTTVTVSS
VL: DIQLTQSPSTLSASVGDRVTITCRASQSIGTSLAWYQQIPGKAPKLLIYRASSLESGVPSRFSGGGSGTQFTLTISSLQPDDFATYYCQQYNNYSPTFGQGTKLEIK
Consider B12, for which the Kd was 185 pM in test [1], 372 pM in test [2], 139 pM in test [3] and 306 pM in test [4].

B13: ADI-21022 (antibody, V domains shown)
VH: EVQLVETGPGLVKPSETLSLTCSVSGGSISSYYWSWLRQPPGKGLEWIGYIYNSGRTNYNPSLRSRVTISVDTSQNQFSLRLGSVTAADTAVYYCARGGAGDDLLRGSYRYLNFWGQGTLVTVSS
VL: QSVLTQPPSVSVAPGQTARITCGGNNIGSKSVHWYQQKPGQAPVLVVYDDTERPSGIPERISGSNSGNTATLTISRVEAGDEADYYCQVWDSSSDHPDLLFGGGTKLTVL
On to B13, for which the binding result in test [1] is “no binding”. Further, the Kd in test [2] came out at 256 pM; in test [3], 17400 pM; in test [4] it was 357 pM.

B14: ADI-21061 (antibody, V domains shown)
VH: QVQLVQSGAEVKKPGSSVKVSCKASGGTFSNYPISWVRQAPGHGLEWMGRVVPTVGLANYAQNLQGRVTITADTSTNTVYMELRSLRSEDTGLYYCARRAVVDTYAFDIWGQGTLVTVSS
VL: QSALIQPASVSGFPGQSITISCTGASSDVGGYNFVSWYQQHPGKAPKLIIYEVTKRPSGVSNRFSGSESGNTASLTISGLQAEDEADYYCSSFRYTSSIVYVFGSGTKVTVL
With B14, the dissociation constant Kd in test [1] was 1100 pM; in test [2], 142 pM; in test [3], 2760 pM; in test [4] it was 2480 pM.

B15: ADI-21008 (antibody, V domains shown)
VH: QVQLQESGAGLLKPSETLSLTCTVYGGTFSGYHWNWIRQPPGKGLEWIGEINHRENTDYNASLESRVTISVDTSKRQFSLKMNSVTVADTAVYYCARGIQVLTNLGTEVRVHQFLDLWGRGTLVTVSS
VL: DIVLTQTPATLSLSPGERATLSCRASQSVSTYLAWYQQKPGQAPRLLIYDASNRAAGIPARFSGSGSGTDFTLTISSLEPEDFAVYYCQQRTNWLPLTFGGGTKVDIK
notes: also called Ab 259
As for B15, the dissociation constant Kd in test [1] was found to be 5680 pM; in test [2], 918 pM; in test [3], 4140 pM; in test [4], 1450 pM.

B16: ADI-21039 (antibody, V domains shown)
VH: EVQLVQSGAEVKKPGASVKVSCKASGYTFISYYIHWVRQAPGQGLEWMGVINPSGGITDYAPKFQGRVSMTRDTSTRTVYLELSSLRSDDTAVYYCARDLCITTSCPRYYDYAWRSYRSEGYFDSWGQGTLVTVSS
VL: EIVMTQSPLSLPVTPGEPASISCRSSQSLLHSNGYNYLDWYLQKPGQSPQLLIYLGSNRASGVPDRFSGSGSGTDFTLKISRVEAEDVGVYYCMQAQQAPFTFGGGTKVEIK
As to B16, the Kd in test [1] came to 1710 pM; in test [2] it was 240 pM; in test [3], 12700 pM; in test [4], 6310 pM.

B17: ADI-21046 (antibody, V domains shown)
VH: EVQLVESGAEAKKPGESLRISCTVSGYSFSKYWVGWVRQTPGKGLEWMGIIDPTDSDTRYSPSFQGQVTISVDNSINTAYLQWSSLKASDTAIYYCARRGQAKCVGNCPRDFMDVWGKGTTVTVSS
VL: SYVLTQPPSVSGAPGQRVTISCAGSSSNIGAGYEVHWYQQLPGTAPKLLIYANRNRPSGVPDRFSGSRSGTSASLAISGLQAEDEADYYCQSYDNNLSGSWVFGGGTKLTVL
On to B17, for which the Kd worked out at 1660 pM in test [1], 187 pM in test [2], 694 pM in test [3] and 224 pM in test [4].
